# Measured values as given in article PMC12461627, “Locking CBL TKBD in its native conformation presents a novel therapeutic opportunity in mutant CBL-dependent leukemia” (Molecular Therapy, 2025).
# B1: unnamed (parent)
# chain 1: MTVEEMDSWIKSWDQM
# chain 2: PPGTVDKKMVEKCWKLMDKVVRLCQNPKLALKNSPPYILDLLPDTYQHLRTILSRYEGKMETLGENEYFRVFMENLMKKTKQTISLFKEGKERMYEENSQPRRNLTKLSLIFSHMLAELKGIFPSGLFQGDTFRITKADAAEFWRKAFGEKTIVPWKSFRQALHEVHPISSGLEAMALKSTIDLTCNDYISVFEFDIFTRLFQPWSSLLRNWNSLAVTHPGYMAFLTYDEVKARLQKFIHKPGSYIFRLSCTRLGQWAIGYVTADGNILQTIPHNKPLFQALIDGFREGFYLFPDGRNQNPDLTGLCEP
# Variants of: B1
# Experiment: phage ELISA
# Conditions: with partner chain of the complex shown;; read off a plot
row,Variant,response [OD at 450 nm]
1,chain 2 G260E,0.1
